The record followed here is patent US6120991.

The target in one test is integrin α3 β1 (human) (UniProt P26006).
The target in a further test is integrin α6 β4 (human) (UniProt P23229).

With “epiligrin-ECM^t (epiligrin left on the substratum after HFK were detached from their ECM with trypsin) (ligand)”, the % adherent HFF control cells on epiligrin-ECM^t at 37° C. (time course) (% adherent cells) with integrin α3 β1 (human) is 57. Besides, the % adherent 51Cr-labeled HFK cells on epiligrin-ECM^t at 4° C. (time course) (% adherent cells) with integrin α6 β4 (human) turned out to be 28.
